Test results: patent publication US20240400657A1 (MorphoSys, published 2024)

Key:
[1] = target: T1, engineered version of human C5aR expressed on CHO cells of the PathHunter β-arrestin assay (DiscoveRx) (human, UniProt P21730 1-350); test: cell-based or functional assay
T1 sequence (looked up): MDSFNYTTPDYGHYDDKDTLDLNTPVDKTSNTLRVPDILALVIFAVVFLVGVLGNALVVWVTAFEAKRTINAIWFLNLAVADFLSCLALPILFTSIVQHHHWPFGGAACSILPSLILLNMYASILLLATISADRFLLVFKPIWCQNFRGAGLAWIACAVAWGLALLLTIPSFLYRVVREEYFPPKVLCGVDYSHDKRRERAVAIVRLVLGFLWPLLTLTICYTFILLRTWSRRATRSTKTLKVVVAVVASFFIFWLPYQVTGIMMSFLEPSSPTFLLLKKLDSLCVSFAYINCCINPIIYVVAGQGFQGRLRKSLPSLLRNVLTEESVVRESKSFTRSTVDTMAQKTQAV

[2] = target: T2, C5aR expressed on purified human neutrophils (human, UniProt P21730 1-350); test: cell-based or functional assay
T2 sequence (looked up): T1 sequence (looked up)

[3] = target: T1, engineered version of human C5aR …; test: cell-based or functional assay; remark: listed apart in the source
[4] = target: T2, C5aR expressed on purified human …; test: cell-based or functional assay; remark: listed apart in the source
[5] = target: T3, full length human C5aR stably expressed on CHO Flp-In cells (human, UniProt P21730 1-350); test: FACS on Flp-In CHO cells, IgG titration
T3 construct: also called human C5aR expressed on CHO cells
T3 sequence: T1 sequence (looked up)
Experimental: (§1) The C5aR-CHO Flp-In™ cell lines were blocked and IgGs were added either in serial dilutions or at a single (high) concentration of 300 nM. For detection of IgG binding, an R-phycoerythrin (R-PE) conjugated anti-human IgG (Fc-gamma fragment specific)2 antibody was added and fluorescence was measured using the FACS Array or Novocyte device.

[6] = target: T2, C5aR expressed on purified human …; test: FACS on purified human neutrophils, IgG titration
Experimental: (§2) Neutrophils were purified from EDTA-whole blood samples using a MACSexpress® Neutrophil Isolation Cocktail from Miltenyi Biotec. Briefly, using this kit, cells are isolated using magnetic labeling and negative magnetic separation. […] Measurements were done at the FACS Array device. FACS data were evaluated using FlowJo™, entered into GraphPad® Prism (v4.0) and fitted to the sigmoidal dose-response curve using non-linear regression to calculate the EC50.

[7] = target: T4, C5aR expressed on purified cynomolgus neutrophils (cynomolgus monkey (Macaca fascicularis)); test: FACS, purified cynomolgus neutrophils, IgG titration
T4 construct: Endogenous receptor on neutrophils from whole blood of three animals; also called cynomolgus C5aR expressed endogenously
T4 chain: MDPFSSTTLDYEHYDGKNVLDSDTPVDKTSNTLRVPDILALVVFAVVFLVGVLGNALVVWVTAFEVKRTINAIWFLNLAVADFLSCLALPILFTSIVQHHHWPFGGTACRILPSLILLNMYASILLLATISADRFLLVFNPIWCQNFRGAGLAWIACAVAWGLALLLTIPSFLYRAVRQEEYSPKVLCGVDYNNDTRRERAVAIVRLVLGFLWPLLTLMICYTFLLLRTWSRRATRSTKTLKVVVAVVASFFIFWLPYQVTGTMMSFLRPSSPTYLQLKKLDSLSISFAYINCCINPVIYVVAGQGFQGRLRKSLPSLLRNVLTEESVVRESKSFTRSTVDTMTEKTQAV
Experimental: as §2

[8] = target: T5, full length cynomolgus C5aR stably expressed on CHO Flp-In cells (cynomolgus monkey (Macaca fascicularis)); test: FACS, CHO Flp-In cells expressing cynomolgus C5aR, single IgG concentration
T5 chain: T4 chain
Experimental: as §1

B1: Human C5a (ligand)
chain: TLQKKIEEIAAKYKHSVVKKCCYDGACVNNDETCEQRAARISLGPRCIKAFTECCVVASQLRANISHKDMQLGR
B1 was tested, and the “Activity of human C5a EC50 (nM) in absence of anti-C5aR antibody, β-arrestin recruitment (PathHunter)” value [1] was 2.9 nM.

B2: RefMAB #1 (antibody, human IgG1, kappa, V domains shown)
VH: EVQLVESGGGLVQPGGSLRLSCAASGFTFSSYVMHWVRQATGKGLEWVSAIDTGGGTYYADSVKGRFTISRENAKNSLYLQMNSLRAGDTAVYYCARDYYYYASGSYYKAFDIWGQGTMVTVSS
VL: EIVLTQSPGTLSLSPGERATLSCRASQSVSSRYLAWYQQKPGQAPRLLIYGASSRATGIPDRFSGSGSGTDFTLTISRLEPEDFAVYYCQQYGSPLTFGQGTKLEIKR
notes: also called IPH5401; NNC0215-0384
In the case of B2, the “IgG concentration for 50% inhibition of CD11b upregulation, granulocytes, 15 nM human C5a” value [2] is reported as 12 nM, the “IgG concentration for 50% inhibition of CD11b upregulation, granulocytes, 150 nM human C5a” value [2] is reported as 291 nM and the “Activity of human C5a EC50 (nM) in presence of 50 nM anti-C5aR antibody, β-arrestin recruitment” value [1] is reported as 10 nM. For the same binder, the “[%] inhibition at 1.2 nM C5a and 50 nM IgG, β-arrestin recruitment” value [3] was 84.2%, the “[%] inhibition at 11 nM C5a and 50 nM IgG, β-arrestin recruitment” value [3] was 38.9% and the “[%] inhibition at 100 nM C5a and 50 nM IgG, β-arrestin recruitment” value [3] was 6.4%. The “CD11b assay, granulocytes, 15 nM C5a, 20 minutes of IgG incubation: IC50” value [4] was 10.2 nM, the “CD11b assay, granulocytes, 15 nM C5a, 300 minutes of IgG incubation: IC50” value [4] was 6.5 nM and the “CD11b assay, monocytes, 15 nM C5a, 20 minutes of IgG incubation: IC50” value [4] was 1.8 nM. The “CD11b assay, monocytes, 15 nM C5a, 300 minutes of IgG incubation: IC50” value [4] was 5.3 nM, the EC50 [5] was 1.1 nM and the EC50 [6] was 3.1 nM. B2: no binding (tested: ~250 nM) [7]; no binding (tested: 300 nM) [8].
